According to the DeepSol protein solubility set:

Experiment: soluble on expression in E. coli; label from the status in PepcDB or PDB records

Soluble on expression in E. coli, not soluble:
MGSDKIHHHHHHMYQEISKLLMYGDLPQDEILYKLGQLFEQFEVGEYNKTELVRDINTQVKRILKVATDYGFDDNLWHNYLTFFLMMSENPFSITCEKVGASDGSVNGLVANDFRIFKKLFDYDFKPIESALGIDCFTQISNYKAIVKKDLMYNHNVSEKVRALSKKLEAAKDEQEFFDVVTGFYKAYGVGMFGLNKAFRIEEHLDGGFSFMPINNMDAVMLDDLIGYEIQKKKLTDNTEAFVQGKKANNVLLFGDSGTGKSTSIKAIVNQYYDDGLRMIEIYKHQFKYLSKIIAAIKNRNYRFIIYMDDLSFEEHEIEYKFLKAVIEGGVETKPDNILIYATSNRRHLIKETWNDRNDQDNSNDKHHSDTVEEKLSLVNRFGVTISYSKPSQKEFFNIVTELARKSGCTLSDEELCREANKWELSHGGISGRTATQFVNYIMANN, MGSDKIHHHHHHMYRILVINPGSSSTKVAVFEDEKKIAEKNVSHSVEELKKFKRSMDQEPLRRKAVEDFIDEVGYRIEDFSAIAARGGVLEPVPGGTYVVNEYMVDYLINRSPVDHVSNLAAVIGYKLGKPHGIPCFVVDPVSVDEMCDEARFSGIPEIERKSYSHALNIKAVLRKVSREMGKTPEEVKIVVAHLGSGISVCACKNGKIIDVNNANDEGPFSIERTGELPVGDVVKTAYSSKHSAAELKEEFTRKGGLLAYLGTKNLKKALDSMETSRKAKLVVEAMAYQIAKEIGGMCAVLGEKPDAIVITGGMAHEIRFVRMITDYIEKFGKVEVIPGELEMEALALGVLRVLRGEEKAMDYRSVVE, MGSDKIHHHHHHNSISDSEVHVMVKTFEGHHVNRLEVLKNTWASDVSRIEYCSDKEDPAIPTINLGVDNTDRGHCAKTWEIFRRFLGSSGNGAKWLVVADDDTLMNFKRLKQMLELYDSGDKIIIGERYGYGFSLNGDSGYDYPTGGSGMIFTRSAVESLLAQCPSCIANTDPDDMTIGICALTAGIPIVHESRLHQARPLDYAPEYIKYPISFHKFTDIDPISVYYEYLVELEEYN, MGSDKIHHHHHHPWRLLTPDQRYQKRQSQLKSTMSDFFTWCESVHALPQSKFGRAIDYALSQREAMENVLLDGRLELSNNRVERAVKELVIGRKNWLFSTSFKGARSSGIILSVMRSAEANGLDCRKYLEYLFTELPNLSVPGDSKALQDYLPWSSQVRAICAR, MGSDKIHHHHHHQEPENQTLETILNRKSVRKYKDRPVEKEKIDKLIRAGMAAPSSRDRRPWEFIIVTDRKALDTMAEGLPFARMLKETRQAIVVCGDTIKSSNAWFLDCSAASQNLLLAAESMGLGAVWTAVYPYPDRIEIVRKELRLPDHIMPLNVIPVGYPMQKETPKNKYNVQQIHHNGW, MGSDKIHHHHHHQSMKKEEVPQNISAFPLGKENTGFKQYFTGESWLAPLTGNKDLNVPMSNVTFEPGCRNNWHSHTGGQILIAVGGVGYYQERGKAARRLLPGDVVEIAPDIEHWHGAAPDSWFSHLAIGCNPQTNKNIWLEQVDDQQYAEATKDNGGTGLSATDPELDAIFGNFTKEVQQYGNLDTKTRLMVTLASNIASQAQTEYRMMLESALNAGITPIEIKEILYQAVAYAGMAKVMDFVGITNEALLAHGVRLPLEGQAVVSAETRFDKGLALQKSIFGERIDQMHKNAPENQKHIQRYLSANCFGDYQTRGGLDVKTRELLTFSILVSLGGCESQVKGHIQGNVNVGNNKDTLLAVVTQLLPYIGYPRTLNAIACLNEVIPEK, MGSDKIHHHHHHSCKQAPDAGVKSSYAVMQIEPTDKELSSSYSATIRGRQDIDIYPQVSGTIEKLCVTEGQKVRRGQLLFIIDQVPYRAALKTATANVEAARAATSTAELTYKSNKELYAQKVVSEFSLKTAENSYLTAKAQLAQAEAQEISARNNLSYTEVKSPSDGVVGALPYRAGALVSANIPYPLTTVSDNSDMYVYFSMTENQLLALTRQYGDMDEALKNMPEVELILNDNSVYQKKGTIESISGVIDRQTGTVVARVVFPNESRLLHSGASGTVVVPSIYKNCIAIPQTATVRMQDKTIVYKVVDGKAVSTLITVAGINDGREYVVLDGLKAGDEIVSEGAGLVREGTQVK, MGSDKIHHHHHHTCSACIQYHESCAWCGAPMFDEKKPYARCDSRAKLMEHGCPNSYIEDPATKLDITEDSKLSDQGQVESEEEAVQIKPQEMYVEIRPKSRVRFNVTYRQAVDYPVDLYYLMDLSYSMKDDKQKLSELGDLLAERMRTVTKNFRLGFGSFIDKKLMPFIDPRIEKQLSPCPTPCAEPYGFKHQMSLTTNTAKFKAEVDKAEISGNLDAPEGGFDAVVQALACNKTIGWRERARKMIVFSTDAGFHFAGDGRLAGVVEPNDGTCHLDREGYYTETLNQDYPSIALLHQMIKDRKANVIFAVTKNNQDLYTQLSNALPDVSSSVGVLANDSRNIVDLIEKEYLKISEKIIMVDNANASEGLKLTYRSMCLDGTTLKDTNVCEGIRVGDEVQFEVTLENTHCIDKRDFVLRIGPSGLDETLIVNVKVLCDC, MGSDKIHHHHHHTQTTEKENEFSMSMQIRPRAEYRNGALVPRNEGQKAASFINNRARLSLDYKRSDLEIKMSAQHVGVWGQDPQIDKNGRFILNEAWAKLDFGKGFFAQLGRQTLVYDDERILGGLDWNVAGRYHDALKLGYANKNNEIHAILAFNQNDEKTAGGTYYNSSIGQPYKNMQTVWYHYKADKIPFGASLLFMNLGLETGNQLTQDSHTRYLQTMGTYLTYKNSGWNLDGAFYYQTGKNKDAESVSAFMASATAAYAFNKTWGMVVSFDYLSGNEEGSSKFKAFDPLYGTHHKFYGSMDYFYASAFNKGFAPGLIDGRLGARFRASAKVDMELNYHYFATATEVDFKEDLKKSLGSEVDYQINWSVMKDVKLSAGYSFMLGTKTMDAVKGGNHKSWQDWGWVSVNINPKVFFTKW, MGSDKIHHHHHHVAKAELMQLPASQMVIGLTVKLPLGWTQHPFFINRIKLTSQAQIELIRGLELTFVYVLSGHELLPEVIEEVEDKQADPMQVKAKPKKVLDSKAAVIKAMRVGQQRFLSNINESRSVFAQFAIEPDKAYREAATMVEGFVDHLQETDTPYLALVGSGEMDVSVTQHGISVAVLSLMIGHALELPKSDLRDLALGSLFHDFGKLKIPDNIRRKRSELTEPEQNYLKMHPNLGFDLLNACNLYPKSVLNIVLHHHEYIDGSGYPDHLTEKDIPLLTQIVSLANDYEGLLEQFTFSPQLALGTLFKSHAKKHAQNLIAALVKVLGIYPPGTLVSLSDGSIGKVMMTTREVKQPHVWSCNLGGGEANLRFLLEEDVTVSSVLRLEELTEGALKTLQADSPISFYFSALPDN, MGSDKIHHHHHHVEQTMFTNEVILSWLQYFSKNAPINLAKLKMLDITGKNKNLIPTVMSNRAVLVFTDAGHPDIFYDMWNAELGDCDIWYNEGSEPSGEIKHDKVSDMINRGINASAAMLILNPNAATNYHIGMENSRFSCGSVQYVCREVRAVIMNKLNLGDQDNICIISGESIAVEAAMIAAEGSVIAVEYDRRDRNTMQENVKKFDLNNVTIVESLENGIPDKLPVPDIAFIVGSPRIGSEIKALLSINPVMDFVIYTLDFEVLMSLPALFRENGLERTEAIHVAVSRVNSKKMVEPFPAPWLISGRSIKG, MGSDKIHHHHHHVERRIFGLENEYGVTCTFRGQRRLSPDEVARYLFRRVVSWGRSSNVFLRNGARLYLDVGSHPEYATPECDNLLDLVAHDKAGERILEGLQIDAEQRLREEGIAGDIYLFKNNTDSAGNSYGCHENYLVARHGEFGKLADVLIPFLVTRQIICGAGKVLQTPRGALYCVSQRAEHIWEGVSSATTRSRPIINTRDEPHADAERFRRLHVIVGDSNMSETTTLLKLASTDLVLRMIEANVPMRDFTLENPIRAIREISHDMTGRRKVRLANGREASALEIQREYLERVQSFVDRTGTDATGKRVLELWQRTLEAVESGNLDLVAREIDWVAKYKLLERYRAKHGLSLSSPRVAQLDLTYHDIHRDRGLFYLLQQRGQMERVVSDLRIFEAKSVPPQTTRARLRGEFIKKAQEKRRDFTVDWVHLKLNDQAQRTVLCKDPFKAVDERVEKLIAGM, MGSDKIHHHHHHVGRIEGQACPATGIWLLPARRQTAYRIQKTSYSALSAPARMDGTDRLAWGRYDTVGTTLYLAENAECAFSETLSPFKRAIGTVDPLRKDADALGMTLEDFYEEVAYQWQEKSFMNSGTLPRIWRTERQLHIVELPFPGWWIDVEHPETMAAVEAAIPDTLKDLGITHVDTSLLRSNRRDVTTAIADHLRDLVLFDGSYAPGIKFGSRHGAYLNWAVWLRDHDLQLSGDDGLVHLGESPISFNDPDLEAASRRFRLKVF, MGSDKIHHHHHHVGTGDGNAIWPIRSVHLIGAIYPHILEELMLNTVILYSTVDGQTLAICQKIKQILVEQGEQVSVVNLAEVEADDLASVDKVVIGASIRYGKHRPELFKFVEQHKVLLDTKHNSFFSVNVVARKPEKNTPETNPYMQKFSNLSAWKPQLLGVFAGKIDYPRYRFFDKFMIRFIMWMTKGPTDTQGTFEFTDWGKVDDYAKQIAAQK, MGSDKIHHHHHHVIRRKKEADMQLPDAWDWESGERTIMASTAPQEGHLWQEELQASPDGERFAAVTALDETTFSLRINDQTQEATYDKIWLPRFSPDGRLTALVQEDGEWTMLVEEEAWPGHYGYLWSTMFGPSGDIAAPAQQDGEYGMVLNGTPWETLYENANNYCISPAGGKTAAVVQTRSMGQADVATFQEGIYSVAVNGEAWPVNFVNCWTPVFSADGRRVAVQVRRNLHDYTIAVDGTPWTINYQCVWEPCFHPSSGGVAAPVRQNGMWGVALDGQMLWKARNAQCWNLRYSPDGSHLWAVVAPEYGMFTVSLDDTPWTFRAPVVTDMVLSPSGDRAAALASDNNTLWQVVVDGKPWRGTYDMAWQPVFSPDGTRVAARVERNGKYVVLLDGAPAAEAFDTAFDPVFSPDGRKLLLRGVRNGKAVRIVKQLQ, MGSDKIHHHHHHVKELHESSTIISFKEHTDVNADSILELSFLKLQTKDSCLVKNVGLIRELNNCLLILDSANSNLYVFNKSGAFVNQIGQKGSGPGEYILLSSFFVDNNKNYIAAIDIAQDKVLYYNATDFSFLYERRLPFSTSCCLQLEDGNLLWNSREYTDSKLSDFYFVVTDSLFDIIDYKMNKEFKSGYTTGPSQMIYKVGTNVFAYTPFDLTIYRVGTSEIVPAHSFSFEGTDIPSLDFLNKTSNQGNSNYLYDLIQSDYISYYCVEETERDLFVCYMKNKEKYIGLYDKNTDRTYNYPIKIFQDQLKVGELNYFSIGSVDDYHVAPLDVLSLKDMAGNGYVFDDKLSELLTISNEEDNSILLFVRIKK, MGSDKIHHHHHHVKQRVAVIGAGPGGLACAMLLAGRGIDVTVYEKQPIVGGRTSRVQVGDYQFDRGPTFLNMPHILENLFTSIDLDMKDYLDLKALDPMYTLYFNGGKDHFTMTTDRDRMKQTIEQHFPGNGEGYDRFMAEQALKLAKLMPILQTKHDKLTDYLSPRVITALPRLSLGRSLYDVLSDYFTSEELKYAFTFQAKYLGMSAWECPGGFSILSYMEHAYGVHHPIGGMNQIPEAMKRAVEELGGTVHLNTGISQLILDGTTATGVILESGEHVLYDDVVVGADFAHAMNHLVPEGVLKKWSRPKIDRKKFSCSTFMLYLGVNKSFDAPHHTIYFADDYEKNVREMTQTLELSDDFSFYVQNPSIIDSTLAPEGKSSLYVLVPVPNNYSELDWAIEGPKLRRRVLDALEHRSPYTGVEAAIEVEEMFTPDDWEAMGVHQGATFNLGHQLTQMMYFRPHNRFEELEHVYLVGGGTHPGSGLPTIFESARITADLLTSEVGVGK
